Assay results reported in US20250277048A1 (Regeneron, published 2025).

How the values were obtained:
[1] = biological target: T1, human CD40 (hCD40) expressed on cells (human, UniProt P25942 21-277); assay: cell-based or functional assay
[2] = biological target: T1, human CD40 (hCD40) expressed on cells; assay: cell-based or functional assay; remark: listed apart in the source
[3] = biological target: T2, monkey CD40 extracellular domain expressed with a C-terminal myc-myc-hexahistidine tag (monkey); assay: SPR Biacore 4000, mAb captured, 25C
T2 construct: also called mfCD40-MMH; REGN3097
T2 chain: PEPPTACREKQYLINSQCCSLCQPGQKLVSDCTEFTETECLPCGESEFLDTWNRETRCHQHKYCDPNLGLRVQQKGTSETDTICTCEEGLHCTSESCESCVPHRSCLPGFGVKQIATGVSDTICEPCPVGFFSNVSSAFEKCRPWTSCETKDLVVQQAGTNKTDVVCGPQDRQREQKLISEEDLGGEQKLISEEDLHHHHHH
Method: (§1) The equilibrium dissociation constants (KD) for anti-CD40 bivalent and bispecific monoclonal antibodies (mAbs) were determined using a real-time surface plasmon resonance (SPR)-based Biacore 4000 biosensor. All binding studies were performed in 10 mM HEPES, 150 mM NaCl, 3 mM EDTA, and 0.05% v/v surfactant Tween-20, pH 7.4 (HBS-ET) running buffer at 25° C. and 37° C. The Biacore CM5 sensor surface was first derivatized by amine coupling with a monoclonal mouse anti-human Fc antibody (REGN2567) to capture anti-CD40 bivalent parental and anti-CD40×CD40 bispecific antibodies. Different concentrations of CD40 reagents, human CD40 extracellular domain expressed with a C-terminal myc-myc-hexahistidine tag (SEQ ID NO: 1114) (“hCD40-MMH”; REGN3094; SEQ ID NO: 53), monkey CD40 extracellular domain expressed with a C-terminal myc-myc-hexahistidine tag (SEQ ID NO: 1114) (“mfCD40-MMH”; REGN3097; SEQ ID NO: 54), and mouse CD40 extracellular domain expressed with a C-terminal myc-myc-hexahistidine tag (SEQ ID NO: 1114) (“mCD40-MMH”; REGN3098; SEQ ID NO: 55), at concentrations ranging from 3.7 nM to 100 nM or 3.3 nM to 90 nM in a series of 3-fold dilutions prepared in HBS-ET running buffer were injected at a flow rate of 30 μL/min for 4 minutes or 50 μL/min for 5 minutes. The dissociation of different CD40 reagents bound to anti-CD40 bivalent parental and anti-CD40×CD40 bispecific antibodies was monitored for 10 minutes in HBS-ET running buffer. At the end of each cycle, the anti-CD40 bivalent parental and anti-CD40×CD40 bispecific antibodies capture surface was regenerated using a 12 sec injection of 20 mM H₃PO₄.
(§2) The association rate (ka) and dissociation rate (kd) were determined by fitting the real-time binding sensorgrams to a 1:1 binding model with mass transport limitation using Scrubber 2.0c curve-fitting software. Binding dissociation equilibrium constant (KD) and dissociative half-life (t_{1/2}) were calculated from the kinetic rates as: KD(M)=kd/kₐ, and t_{1/2} (min)=[ln(2)/(60*kd)].

[4] = biological target: T3, mouse CD40 extracellular domain expressed with a C-terminal myc-myc-hexahistidine tag (mouse); assay: SPR Biacore 4000, mAb captured, 25C
T3 construct: also called mCD40-MMH; REGN3098
T3 chain: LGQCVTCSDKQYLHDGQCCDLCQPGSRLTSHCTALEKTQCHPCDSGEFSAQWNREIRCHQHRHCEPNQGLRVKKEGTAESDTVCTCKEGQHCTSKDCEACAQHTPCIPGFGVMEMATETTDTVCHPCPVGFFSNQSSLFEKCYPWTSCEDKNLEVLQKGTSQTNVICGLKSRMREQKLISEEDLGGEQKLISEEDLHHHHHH
Method: as §1, §2

[5] = biological target: T4, human CD40 extracellular domain expressed with a C-terminal myc-myc-hexahistidine tag (human); assay: SPR Biacore 4000, mAb captured, 25C
T4 construct: also called hCD40-MMH; hCD40-mmH
Method: as §1, §2

[6] = biological target: T1, human CD40 (hCD40) expressed on cells; assay: flow cytometry, HEK293/D9/hCD40 cells
How it was run: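 Cells were incubated 30 min at 4 °C with antibody dilutions from 1.7 pM to 100 nM in 2% FBS/PBS, then with 2.5 μg/ml APC anti-human IgG Fcγ, and fixed. Multiplexed populations were separated by CellTrace signature. APC median fluorescence was fitted with a four-parameter logistic model, and MFI >1500 at 100 nM counted as specific binding.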

T1 sequence (P25942 21-277): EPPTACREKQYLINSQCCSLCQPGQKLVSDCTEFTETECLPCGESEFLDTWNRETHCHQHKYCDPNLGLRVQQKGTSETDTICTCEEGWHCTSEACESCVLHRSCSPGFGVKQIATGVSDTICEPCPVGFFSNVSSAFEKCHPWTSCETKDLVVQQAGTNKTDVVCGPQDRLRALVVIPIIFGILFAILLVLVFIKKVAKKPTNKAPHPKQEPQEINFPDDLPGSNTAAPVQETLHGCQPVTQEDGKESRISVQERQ

B1: 30027P2 (antibody, human IgG4 S228P, kappa, V domains shown)
VH: EVQLVESGGGLVQPGGSLRLSCAASGFTFSSYAMNWVRQAPGKGLEWVSIISGTIGKTYYADSVKGRFTISRDNSKNTLYLQMNSLRGEDTAVYYCAKDTERDITGSPFDYWGQGTLVTVSS
VL: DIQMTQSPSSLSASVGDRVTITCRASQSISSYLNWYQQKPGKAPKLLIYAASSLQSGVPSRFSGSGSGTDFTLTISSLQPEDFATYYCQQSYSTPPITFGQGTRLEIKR
notes: parental bivalent anti-CD40 mAb; common light chain; also called H4sH30027P2
In the case of B1, the “EC50 (potentiation), 10 nM hCD40L, THP-1 NFkB-luc” value [1] is reported as 0.00251 nM, the “Max % activation, no ligand, THP-1 NFkB-luc” value [1] is reported as 2% and the “Max % inhibition, 10 nM hCD40L, THP-1 NFkB-luc” value [1] is reported as -61%. For the same binder, the “EC50 (potentiation), 500 pM hCD40L, Ramos NFkB-luc” value [2] was 8.14e-12 M, the “Max % activation, no ligand, Ramos NFkB-luc” value [2] was 8% and the “Max % inhibition, 500 pM hCD40L, Ramos NFkB-luc” value [2] was -130%. The “100 nM Ag Bound” value [3] was 63.1 RU, the Kd [3] was 0.901 nM and the koff [3] was 0.00102 s⁻¹. For the same binder, the kon [3] was 1.14e+06 M⁻¹ s⁻¹, the t1/2 [3] was 11.3 min and the “100 nM Ag Bound” value [4] was 0.2 RU. For the same binder, the binding result [4] was “no binding (tested: 100 nM)”, the “100 nM Ag Bound” value [5] was 62 RU and the Kd [5] was 1.83 nM. It also gave a koff [5] of 0.000998 s⁻¹, a kon [5] of 546000 M⁻¹ s⁻¹ and a t1/2 [5] of 11.6 min. The EC50 [6] was 0.72 nM and the “MFI at 100 nM” value [6] was 20900 MFI.
